Literature values in patent publication US20190350851A1, “DOSE RESPONSE, SURFACE MODIFIED NANOTUBES” (MOLECULAR REBAR DESIGN, LLC, priority 2018, published 2019).

B1: Myoglobin (protein, UniProt P02144 2-154, looked up)
Myoglobin: GLSDGEWQLVLNVWGKVEADIPGHGQEVLIRLFKGHPETLEKFDKFKHLKSEDEMKASEDLKKHGATVLTALGGILKKKGHHEAEIKPLAQSHATKHKIPVKYLEFISECIIQVLQSKHPGDFGADAQGAMNKALELFRKDMASNYKELGFQG

Details: in water

In order of falling “Hydrodynamic Radius” value:
1. Bovine serum albumin  7.0 nm
2. B1  3.34 nm
3. Cytochrome C  2.64 nm
4. Insulin  2.1 nm
5. NC(=O)CC[C@@H]1NC(=O)[C@H](Cc2ccccc2)NC(=O)[C@H](Cc2ccc(O)cc2)NC(=O)CCSSC[C@@H](C(=O)N2CCC[C@H]2C(=O)N[C@H](CCCN=C(N)N)C(=O)NCC(N)=O)NC(=O)[C@H](CC(N)=O)NC1=O [Desmopressin, reference compound]  0.88 nm
6. CN1CCCC1c1cccnc1 (centres unmarked) [Nicotine, reference compound]  0.38 nm
7. O=C(O)c1cccnc1 [Niacin, reference compound]  0.33 nm

Same assay, conditions: in water; listed as bovine serum albumin

In the case of Bovine serum albumin, the “Hydrodynamic Radius” value is given as 7 nm.
